Molecular target: CD55 on healthy donor erythrocytes (human) (UniProt P08174)
Experiment: flow cytometry on healthy donor erythrocytes, mAb at 10 µg/ml, positive control

Chain of UniProt P08174 (P08174 35-353): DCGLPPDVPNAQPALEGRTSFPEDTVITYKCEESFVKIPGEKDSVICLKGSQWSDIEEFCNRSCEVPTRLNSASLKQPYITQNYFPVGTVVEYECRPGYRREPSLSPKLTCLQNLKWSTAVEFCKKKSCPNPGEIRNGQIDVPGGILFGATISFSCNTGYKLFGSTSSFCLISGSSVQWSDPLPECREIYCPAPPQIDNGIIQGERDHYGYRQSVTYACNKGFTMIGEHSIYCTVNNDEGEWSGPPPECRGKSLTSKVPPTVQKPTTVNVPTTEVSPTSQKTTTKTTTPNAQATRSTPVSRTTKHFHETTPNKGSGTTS

Gm (geometric mean fluorescence): 202
Substance: 791T/36 (anti-CD55 mAb) (antibody)

From patent publication US20220324997A1
